Test results reported in IntAct's records for PubMed 21217703.

B1: Telomere length regulator taz1 (Schizosaccharomyces pombe (strain ATCC 38366 / 972)), P79005 (parent)
chain: MISVQSTETIQKVLENEGDQQFDKEVVQNSDSNIETGQISDSLTKAVEERAETESSSNLSNFTTSESESSKPAYCFNSHSQNMAEGSISIPVISHSMNVENEVSTAEGQDSRTGESENDQNAMIVRSIWDIEKASLLVNDCQNIANMAEQKVMMVSAIFSESSKDIVNPESFSERLGKETVKDLYEFNEQLTTKYGLEFRTIFFSYIRKYDAYWCLFEDLEKPLKSIQFFTGLIDLLDNTNKHLTLRSIVLDALLSADEEDSFYGDALVLFEELVIRYFGTDSNPSIDASEFILSCLPYTSLDALNVVCGQVWKSQKICDFLKSTIGNTSNSPLQLRASFPAFVNAVIHFLLEFKNVRRLERKDLSVKGMLYDSDSQQILNRLRERVSGSTAQSADEASGHESDASEDTFSERTLGLNSIDNTEISEVVSLGLVSSALDKITGLLSADNLSETVSQARDFSHTLSKSLKSRAKSLSQKEAANRSKLIAKRGDNLRREASLSSEQDDLSEDFPPVRESDEQESRSGGRSSAMRVSIERSAARSGTRRSQGNPYEGYRTRRKWTDEEENELYEMISQHGCCWSKIIHIQKLENGPLKTFGPTQIKDKARLIKARFMKQNRLQELYSKSLNWKNVTVGQAYCELHKIPYIEATPPLLREELVNYQS
partner: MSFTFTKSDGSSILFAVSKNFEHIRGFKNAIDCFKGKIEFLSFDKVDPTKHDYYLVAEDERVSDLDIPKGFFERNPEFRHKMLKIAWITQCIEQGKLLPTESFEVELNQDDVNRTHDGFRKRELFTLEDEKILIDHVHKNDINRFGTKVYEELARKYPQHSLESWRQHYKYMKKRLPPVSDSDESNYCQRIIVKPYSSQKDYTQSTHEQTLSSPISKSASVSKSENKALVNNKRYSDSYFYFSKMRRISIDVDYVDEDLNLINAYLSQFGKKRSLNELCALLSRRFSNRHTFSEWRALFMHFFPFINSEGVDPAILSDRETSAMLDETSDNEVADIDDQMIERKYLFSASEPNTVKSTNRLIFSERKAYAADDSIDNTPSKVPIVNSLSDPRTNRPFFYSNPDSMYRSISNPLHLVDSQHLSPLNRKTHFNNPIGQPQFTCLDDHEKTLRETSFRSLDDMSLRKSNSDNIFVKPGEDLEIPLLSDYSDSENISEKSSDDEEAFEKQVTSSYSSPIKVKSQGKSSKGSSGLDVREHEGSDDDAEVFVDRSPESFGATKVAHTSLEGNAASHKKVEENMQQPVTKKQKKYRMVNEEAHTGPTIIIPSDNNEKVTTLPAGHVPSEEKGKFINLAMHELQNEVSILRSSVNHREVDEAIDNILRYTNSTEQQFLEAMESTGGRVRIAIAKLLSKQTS
B2: DNA-binding protein rap1 (Schizosaccharomyces pombe (strain ATCC 38366 / 972)), Q96TL7 (parent)
chain: B1 partner
partner: B1 chain
B3: DNA-binding protein RAP1 (Saccharomyces cerevisiae), P11938 (parent)
chain: MSSPDDFETAPAEYVDALDPSMVVVDSGSAAVTAPSDSAAEVKANQNEENTGATAAETSEKVDQTEVEKKDDDDTTEVGVTTTTPSIADTAATANIASTSGASVTEPTTDDTAADEKKEQVSGPPLSNMKFYLNRDADAHDSLNDIDQLARLIRANGGEVLDSKPRESKENVFIVSPYNHTNLPTVTPTYIKACCQSNSLLNMENYLVPYDNFREVVDSRLQEESHSNGVDNSNSNSDNKDSIRPKTEIISTNTNGATEDSTSEKVMVDAEQQARLQEQAQLLRQHVSSTASITSGGHNDLVQIEQPQKDTSNNNNSNVNDEDNDLLTQDNNPQTADEGNASFQAQRSMISRGALPSHNKASFTDEEDEFILDVVRKNPTRRTTHTLYDEISHYVPNHTGNSIRHRFRVYLSKRLEYVYEVDKFGKLVRDDDGNLIKTKVLPPSIKRKFSADEDYTLAIAVKKQFYRDLFQIDPDTGRSLITDEDTPTAIARRNMTMDPNHVPGSEPNFAAYRTQSRRGPIAREFFKHFAEEHAAHTENAWRDRFRKFLLAYGIDDYISYYEAEKAQNREPEPMKNLTNRPKRPGVPTPGNYNSAAKRARNYSSQRNVQPTANAASANAAAAAAAAASNSYAIPENELLDEDTMNFISSLKNDLSNISNSLPFEYPHEIAEAIRSDFSNEDIYDNIDPDTISFPPKIATTDLFLPLFFHFGSTRQFMDKLHEVISGDYEPSQAEKLVQDLCDETGIRKNFSTSILTCLSGDLMVFPRYFLNMFKDNVNPPPNVPGIWTHDDDESLKSNDQEQIRKLVKKHGTGRMEMRKRFFEKDLL
B4: Telomeric repeat-binding factor 2-interacting protein 1 (Homo sapiens), Q9NYB0 (parent)
chain: MAEAMDLGKDPNGPTHSSTLFVRDDGSSMSFYVRPSPAKRRLSTLILHGGGTVCRVQEPGAVLLAQPGEALAEASGDFISTQYILDCVERNERLELEAYRLGPASAADTGSEAKPGALAEGAAEPEPQRHAGRIAFTDADDVAILTYVKENARSPSSVTGNALWKAMEKSSLTQHSWQSLKDRYLKHLRGQEHKYLLGDAPVSPSSQKLKRKAEEDPEAADSGEPQNKRTPDLPEEEYVKEEIQENEEAVKKMLVEATREFEEVVVDESPPDFEIHITMCDDDPPTPEEDSETQPDEEEEEEEEKVSQPEVGAAIKIIRQLMEKFNLDLSTVTQAFLKNSGELEATSAFLASGQRADGYPIWSRQDDIDLQKDDEDTREALVKKFGAQNVARRIEFRKK
B5: Telomeric repeat-binding factor 2 (Homo sapiens), Q15554 (parent)
chain: MAAGAGTAGPASGPGVVRDPAASQPRKRPGREGGEGARRSDTMAGGGGSSDGSGRAAGRRASRSSGRARRGRHEPGLGGPAERGAGEARLEEAVNRWVLKFYFHEALRAFRGSRYGDFRQIRDIMQALLVRPLGKEHTVSRLLRVMQCLSRIEEGENLDCSFDMEAELTPLESAINVLEMIKTEFTLTEAVVESSRKLVKEAAVIICIKNKEFEKASKILKKHMSKDPTTQKLRNDLLNIIREKNLAHPVIQNFSYETFQQKMLRFLESHLDDAEPYLLTMAKKALKSESAASSTGKEDKQPAPGPVEKPPREPARQLRNPPTTIGMMTLKAAFKTLSGAQDSEAAFAKLDQKDLVLPTQALPASPALKNKRPRKDENESSAPADGEGGSELQPKNKRMTISRLVLEEDSQSTEPSAGLNSSQEAASAPPSKPTVLNQPLPGEKNPKVPKGKWNSSNGVEEKETWVEEDELFQVQAAPDEDSTTNITKKQKWTVEESEWVKAGVQKYGEGNWAAISKNYPFVNRTAVMIKDRWRTMKRLGMN
partner: B4 chain

Variants of: B1
Settings: with rap1_schpo rap1, Q96TL7

Variant | effect of a mutation on the interaction
L383R | disrupting interaction
I379A | disrupting interaction strength

Second part, the variant after the results:

effect of a mutation on the interaction | Variant
disrupting interaction | R386E
disrupting interaction | L383A
decreasing interaction | L380R
disrupting interaction strength | I379R
decreasing interaction | R384E

Variants of: B1
Settings: with rap1_schpo rap1, Q96TL7
Remark: another data set of the same source

effect of a mutation on the interaction | Variant
decreasing interaction | V387R
disrupting interaction | I379R

Variants of: B2
Settings: with taz1_schpo taz1, P79005

effect of a mutation on the interaction | Variant
decreasing interaction | V651R
disrupting interaction | I655R

Variants of: B3
Settings: with sir3_yeast SIR3, P06701
sir3_yeast SIR3, P06701, sequence (P06701 whole entry): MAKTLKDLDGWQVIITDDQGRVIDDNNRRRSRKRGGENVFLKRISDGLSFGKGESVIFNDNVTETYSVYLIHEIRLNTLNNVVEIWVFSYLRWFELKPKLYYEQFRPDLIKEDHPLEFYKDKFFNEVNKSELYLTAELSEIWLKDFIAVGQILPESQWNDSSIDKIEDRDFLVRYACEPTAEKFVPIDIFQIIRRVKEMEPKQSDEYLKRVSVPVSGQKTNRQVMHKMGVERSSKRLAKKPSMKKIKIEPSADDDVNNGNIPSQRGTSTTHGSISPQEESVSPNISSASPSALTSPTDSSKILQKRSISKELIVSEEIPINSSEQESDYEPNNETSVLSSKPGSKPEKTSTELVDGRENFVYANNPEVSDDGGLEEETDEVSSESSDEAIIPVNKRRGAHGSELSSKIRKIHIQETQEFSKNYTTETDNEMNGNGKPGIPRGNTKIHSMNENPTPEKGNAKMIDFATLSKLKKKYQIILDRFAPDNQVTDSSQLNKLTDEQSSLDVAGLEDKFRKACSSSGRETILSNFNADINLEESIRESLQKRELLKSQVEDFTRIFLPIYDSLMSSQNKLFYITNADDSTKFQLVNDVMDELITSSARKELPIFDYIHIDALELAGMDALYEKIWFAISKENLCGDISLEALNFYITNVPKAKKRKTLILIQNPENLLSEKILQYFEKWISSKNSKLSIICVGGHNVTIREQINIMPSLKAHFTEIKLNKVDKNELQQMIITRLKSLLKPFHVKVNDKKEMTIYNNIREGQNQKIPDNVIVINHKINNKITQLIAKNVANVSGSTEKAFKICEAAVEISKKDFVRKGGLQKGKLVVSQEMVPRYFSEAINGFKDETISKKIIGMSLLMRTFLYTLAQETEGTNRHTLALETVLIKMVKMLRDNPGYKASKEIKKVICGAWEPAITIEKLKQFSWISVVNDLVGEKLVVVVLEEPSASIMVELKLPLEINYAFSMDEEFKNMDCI

effect of a mutation on the interaction | Variant
decreasing interaction | P730R
disrupting interaction | A733R
disrupting interaction | G760R
disrupting interaction | V737R
disrupting interaction | L755R

Variants of: B4
Settings: with terf2_human TERF2, Q15554

effect of a mutation on the interaction | Variant
disrupting interaction | MAEAMDLGKDPNGPTHSSTLFVRDDGSSMSFYVRPSPAKRRLSTLILHGGGTVCRVQEPGAVLLAQPGEALAEASGDFISTQYILDCVERNERLELEAYRLGPASAADTGSEAKPGALAEGAAEPEPQRHAGRIAFTDADDVAILTYVKENARSPSSVTGNALWKAMEKSSLTQHSWQSLKDRYLKHLRGQEHKYLLGDAPVSPSSQKLKRKAEEDPEAADSGEPQNKRTPDLPEEEYVKEEIQENEEAVKKMLVEATREFEEVVVDESPPDFEIHITMCDDDPPTPEEDSETQPDEEEEEEEEKVSQPEVGAAIKIIRQLMEKFNLDLSTVTQARLKNSGELEATSAFLASGQRADGYPIWSRQDDIDLQKDDEDTREALVKKFGAQNVARRIEFRKK [F336R]
disrupting interaction | MAEAMDLGKDPNGPTHSSTLFVRDDGSSMSFYVRPSPAKRRLSTLILHGGGTVCRVQEPGAVLLAQPGEALAEASGDFISTQYILDCVERNERLELEAYRLGPASAADTGSEAKPGALAEGAAEPEPQRHAGRIAFTDADDVAILTYVKENARSPSSVTGNALWKAMEKSSLTQHSWQSLKDRYLKHLRGQEHKYLLGDAPVSPSSQKLKRKAEEDPEAADSGEPQNKRTPDLPEEEYVKEEIQENEEAVKKMLVEATREFEEVVVDESPPDFEIHITMCDDDPPTPEEDSETQPDEEEEEEEEKVSQPEVGAAIKIRRQLMEKFNLDLSTVTQAFLKNSGELEATSAFLASGQRADGYPIWSRQDDIDLQKDDEDTREALVKKFGAQNVARRIEFRKK [I318R]

Variants of: B5
Settings: with te2ip_human TERF2IP

effect of a mutation on the interaction | Variant
disrupting interaction strength | L330E
disrupting interaction strength | L330R
